In this assay the target is Recombinant TcdB (aa 1751–2366), biotinylated (Clostridioides difficile; strain of …, UniProt P18177). The assay is described as follows: SPR. To be noted: both partners purified.

In article PMC6291252 (PLoS ONE, 2018) one finds Kd, koff and kon data, which are given here for one molecule.

Chain of Recombinant TcdB (aa 1751–2366), biotinylated (P18177 1751-2366): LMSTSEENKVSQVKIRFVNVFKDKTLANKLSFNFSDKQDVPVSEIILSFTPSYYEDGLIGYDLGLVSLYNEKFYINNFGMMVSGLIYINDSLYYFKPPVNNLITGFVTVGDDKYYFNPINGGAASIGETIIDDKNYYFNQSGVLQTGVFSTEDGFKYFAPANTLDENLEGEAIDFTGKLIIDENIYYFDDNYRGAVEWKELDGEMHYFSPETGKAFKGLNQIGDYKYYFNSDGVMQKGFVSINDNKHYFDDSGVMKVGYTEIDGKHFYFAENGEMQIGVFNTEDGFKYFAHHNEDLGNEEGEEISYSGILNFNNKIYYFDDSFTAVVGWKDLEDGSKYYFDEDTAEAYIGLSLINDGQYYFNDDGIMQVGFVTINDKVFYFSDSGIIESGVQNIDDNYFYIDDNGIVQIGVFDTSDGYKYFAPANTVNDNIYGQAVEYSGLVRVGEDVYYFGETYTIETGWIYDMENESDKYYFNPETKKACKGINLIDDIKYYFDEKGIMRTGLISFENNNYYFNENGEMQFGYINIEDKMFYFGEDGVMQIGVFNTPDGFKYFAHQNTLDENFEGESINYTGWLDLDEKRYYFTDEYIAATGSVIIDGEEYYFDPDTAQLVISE

B1: B39 (VHH)
VHH: QVQLVESGGGLVQAGGSLRLSCAASGLTFSRYVMGWFRQAPGKEREFVAAITWGGTPNYADSVKGRFTISRDNSKNTQYLQMNSLKPEDTAVYYCAAGLGWDSRYSQSYNYWGQGTQVTVSS
Broadly, the Kd is the concentration at which binding is half-saturated. In general, koff refers to the first-order rate constant of dissociation. By kon is commonly meant the rate constant with which the complex forms. For B1, the Kd is 0.07 nM, the koff turned out to be 0.00256 s⁻¹ and the kon came out at 3.44e+07 M⁻¹ s⁻¹.
